Laboratory results published in patent publication US5767233A, “Soluble cleavable substrates of the hepatitis C virus protease” (Schering Corporation, priority 1995, dated 1998).
Entries after “also recorded” stand apart in the source; their conditions may differ.

Experiments:
Format in all cases: biochemical, Hepatitis C virus (HCV)
[1] = system: NS3 protease (pBJ1022, NS3 catalytic domain); experiment: Enhancement by 4A peptides of NS3 cleavage in the in vitro translation assay; conditions: no NS3 protease present
Method: (§1) The plasmid pTS102 encoding the substrate 5A/5B was linearized by digestion with EcoR I and was transcribed using T7 RNA polymerase in vitro. The RNA was translated in presence of ^35 S methionine in rabbit reticulocyte lysates according to the manufacturer's (Promega protocol to produce HCV specific protein. In a 20 μl total reaction mixture containing 10 mM Tris, pH 7.5, 1 mM DTT, 0.5 mM EDTA, and 10% glycerol was placed 2 to 8 μl of ^35 S methionine-labeled translated 5A/5B substrate. The reaction was started with the addition of 10 μl of HCV NS3 protease in solubilization buffer (50 mM Na Phosphate, pH 7.8, 0.3M NaCl, 0.2% Tween 20, 10 mM DTT or BME, 10% glycerol), and incubated at 30° C. for the specified time. Reactions were stopped by adding an equal volume of 2X Laemmli sample buffer (Enprotech Inc.) and heating at 100° C. for 3 minutes. Reaction products were separated by SDS PAGE electrophoresis; gels were fixed, dried and subjected to autoradiography.
(§2) NS4A is able to enhance the NS3 serine protease activity at NS5A/5B site in mammalian cells that transiently coexpress NS3, NS4A, and the various HCV non-structural polyprotein containing downstream cleavage sites. We have studied this enhancement activity in a well defined cell-free biochemical assay, using the partially purified E. coli-expressed pBJ1022 as a source of NS3 protease, and synthetic peptides containing various truncations of NS4A. In our first experiment we used a crude cell lysate of pBJ1022 as the enzyme and NS4A synthetic peptide truncated 33 mer from amino acid 22 to amino acid 54, the carboxy-terminal in vitro translation cleavage reaction.
(§3) To further characterize NS4A enhancement activity additional truncations were made to the NS4A sequence. Truncated peptides were evaluated for their activity in the in vitro translation assay using Ni^2+ chelate column-purified pBJ1022 (NS3 catalytic domain).

[2] = target: T1, NS3 protease (pBJ1022, NS3 catalytic domain) (Hepatitis C virus genotype 1a, UniProt P27958); experiment: as above
T1 construct: made in house; host or cells: E. coli M15 [pREP4]
T1 sequence (P27958 1028-1209): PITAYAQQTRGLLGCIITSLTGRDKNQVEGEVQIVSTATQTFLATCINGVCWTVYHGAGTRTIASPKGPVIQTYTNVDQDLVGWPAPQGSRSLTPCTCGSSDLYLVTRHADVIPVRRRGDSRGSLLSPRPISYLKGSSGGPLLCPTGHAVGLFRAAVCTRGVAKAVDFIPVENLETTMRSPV
Method: as §1, §2, §3

[3] = system: in vitro-translated 5A/5B substrate; experiment: Analysis of refolded NS3 protease activity by in vitro translation assay; conditions: in the presence of 4A peptide (33 mer, 2 μM), 30° C., about one hour
From the text: (§4) To detect HCV NS3 protease activity in trans, we have expressed a 40 kD protein containing the NS5A/5B cleavage site in cell-free translation system and used that as the substrate for the enzyme. The substrate protein produces two protein products of apparent molecular weight 12.5 kD (NS 5A') and 27 kD (NS5B') upon cleavage by the HCV NS3 protease.
as §1, with “(Promega)” for “(Promega”, “protease (SEQ ID NO: 5) with an approximately equimolar amount (2 μM) of the carboxyterminal 33 mer cofactor NS4A (SEQ ID NO: 29)” for “protease”, “about one hour.” for “the specified time.”, “Reaction products were separated by SDS PAGE electrophoresis; gels were fixed, dried and subjected to autoradiography.” left out

[4] = system: in vitro translated 5A/5B substrate (40 kD protein containing the NS5A/5B cleavage site); experiment: Analysis of NS3 protease activity by in vitro translation assay
From the text: as §4, §1

C-terminal 33 amino acid peptide of NS4A: NS4A synthetic peptide truncated 33 mer from amino acid 22 to amino acid 54 (strain HCV-BK) (CVVIVGRIVLSGKPAIIPDREVLYQEFDEMEEC)
cleavage of the substrate by the 4A peptide itself or with vector lysate [1]: did not cleave the substrate
enhancement of NS3 mediated cleavage activity ([2]; Ni2+ chelate column-purified pBJ1022 (NS3 catalytic domain)): able to enhance the NS3 mediated cleavage activity
enhancement of NS3 catalytic domain activity at the 5A/5B site ([2]; crude cell lysate of pBJ1022 as enzyme, 0.01 μM to 1.0 μM peptide, 30 minutes): able to enhance the activity of the NS3 catalytic domain in a dose dependent manner

B1: HisHIV183: histidine-tagged HCV NS3 protease without solubilizing motif, refolded from E. coli inclusion bodies (protein)
chain: MRGSHHHHHHGSHKARVLAEAMSHGTMAPITAYAQQTRGLLGCIITSLTGRDKNQVEGEVQIVSTATQTFLATCINGVCWTVYHGAGTRTIASPKGPVIQMYTNVDQDLVGWPAPQGSRSLTPCTCGSSDLYLVTRHADVIPVRRRGDSRGSLLSPRPISYLKGSSGGPLLCPAGHAVGLFRAAVCTRGVTKAVDFIPVENLETTMRSPV
trans-cleavage activity of the refolded protease on 5A/5B substrate [3]: active; also recorded: able to cleave 5A/5B substrate in a dose responsive manner

B2: pBJ1022: E. coli-expressed His-tagged NS3 protease catalytic domain with hydrophilic tail, named by its plasmid (protein)
chain: MRGSHHHHHHTDPPITAYAQQTRGLLGCIITSLTGRDKNQVEGEVQIVSTATQTFLATCINGVCWTVYHGAGTRTIASPKGPVIQMYTNVDQDLVGWPAPQGSRSLTPCTCGSSDLYLVTRHADVIPVRRRGDSRGSLLSPRPISYLKGSSGGPLLCPAGHAVGLFRAAVCTRGVTKAVDFIPVENLETTMRSPVRKKKRR
HCV protease activity of imidazole-eluted fractions ([4]; POROS Ni2+ chelate purification, NS4A amino acids 22 to 54 peptide added at 1 μM): active
cleavage activity by the protease alone, without the 4A peptide ([4]; crude cell lysate, incubation time of 30 minutes): relatively low cleavage activity
cleavage of 5A/5B substrate by crude soluble lysate ([4]; two hour assay at 30° C., lysate at 3, 6 and 10 μl, SDS PAGE): able to cleave 5A/5B substrate in a dose responsive manner

B3: pNB182Δ4A: E. coli-expressed fusion of NS3 catalytic domain (182aa)-G-NS4A(4-54) with hydrophilic tail, named by its plasmid (protein)
chain: MRGSHHHHHHTDPPITAYAQQTRGLLGCIITSLTGRDKNQVEGEVQIVSTATQTFLATCINGVCWTVYHGAGTRTIASPKGPVIQMYTNVDQDLVGWPAPQGSRSLTPCTCGSSDLYLVTRHADVIPVRRRGDSRGSLLSPRPISYLKGSSGGPLLCPAGHAVGLFRAAVCTRGVTKAVDFIPVENLETTMRSPGVLVGGVLAALAAYCLSTGCVVIVGRIVLSGKPAIIPDREVLYQEFDEMEECRKKKRRKLN
time at which 5A and 5B cleavage products began to appear ([4]; 30° C., soluble lysate at 1 μl per 20 μl reaction volume): 1 min
amount of lysate at which cleavage reached a maximum ([4]; 30 minutes incubation): 1 µL
least amount of cell lysate at which 5A and 5B cleavage products were detected ([4]; 30 minutes incubation): 0.125 µL
activity of crude soluble lysate compared with pBJ1022 lysate ([4]; crude soluble lysate, 30 minutes incubation): much more active
cleavage of translated 5A/5B substrate by imidazole-eluted fractions ([4]; fractions from Ni-NTA column purification): all able to cleave the translated 5A/5B Substrate
